The experiment concerns the target CaV2.1 (full-length) (UniProt P54282).

Regarding “CaV2.1 N terminus (residues 1–100) (from UniProt P54282 1-100) (domain or fragment)”, the inhibition of peak IBa (CaV2.1/α2δ-2/β4) on co-expression in Xenopus oocytes was determined as 37.9 % inhibition.
“CaV2.1 N terminus-CAAX (from UniProt P54282 1-100) (domain or fragment)” gave a reduction of peak IBa (CaV2.1/α2δ-2/β4) on co-expression in Xenopus oocytes of 43.8 % reduction.

(Values after paper PMC2801285.)
